Measured values taken from patent publication US20260077071A1, “Targeted Delivery of Theranostic Agents” (Peter MacCallum Cancer Institute, priority 2022, published 2026).
Square brackets hold non-standard residues; d marks the D form. Peptide text beside a SMILES is read from it. * marks the point of attachment. DOTA = O=C(O)CN1CCN(CC(=O)O)CCN(CC(=O)*)CCN(CC(=O)O)CC1; NMe1Nal = CN[C@@H](Cc1cccc2ccccc12)C(=O)O; 1Nal = N[C@@H](Cc1cccc2ccccc12)C(=O)O; NMeF = CN[C@@H](Cc1ccccc1)C(=O)O; NMeNle = CCCC[C@H](NC)C(=O)O; Sar = CNCC(=O)O

Key:
in vitro = in vitro ADME, mouse; details: for remaining at 1.5 h: mouse, pH 7.3
Method: Drug detoxification, drug metabolism and metabolic stability are important determinants of the efficacy of theranostic candidates in clinical settings. To assess metabolic stability, radiolabelled Compounds [^68Ga]Ga-1-4 and comparative example-2 ([^68Ga]Ga-Cmp ex-2) were challenged by incubation in either human serum, mouse liver or kidney homogenates and HEPES buffer as a negative control. Duplicate samples (750-900 pmol/mL) were incubated at 37° C. with pooled human serum, 15% mouse kidney homogenate, 30% mouse liver homogenate or 20 mM HEPES, pH 7.3 (control). Human blood was collected and serum prepared using SSTII advance vacutainer tubes according to the manufacturer's instructions (Becton Dickinson, New Jersey, USA). Mouse kidney and liver homogenates were prepared by washing the tissues in ice-cold HEPES buffer, pH 7.3 and placing them in pre-chilled tubes containing HEPES buffer and 2.38 mm metal beads (Mo-Bio Laboratories, Hilden, Germany). Tissues were homogenised using the PowerLyzer24 homogeniser (Qiagen, Hilden, Germany) according to the manufacturer's instructions. Ga-68 radiolabelled peptides were incubated with the various lysates at 37° C. and samples were collected at 15, 30, 60 and 90 min. Reactions were terminated by addition of an equal volume of acetonitrile and centrifugation for 2 min at 15,000 rpm. Supernatants were diluted in water before being analysed by HPLC using a Kinetex C18 XB column (5 μm 4.6×150 mm), eluted at 1.5 mL/min of gradient 20-60% MeCN in water containing 0.1% formic acid over 7 min.

[1] = LogD7.4 determination (PBS pH 7.4 / n-octanol); format: physicochemical; details: PBS/Octanol mix, n = 5
Method: The distribution coefficients (LogD7.4) of radiolabelled compounds [^68Ga]Ga-1-4, and [^68Ga]Ga-Cmp ex-2 were assayed by measuring radioactivity distribution in the aqueous phase (phosphate buffer pH7.4) and the organic phase (n-octanol). To determine the distribution coefficient (LogD), Ga-68 radiolabelled compounds were diluted to 20 pmol/mL in PBS (pH 7.4) and an equal volume of n-octanol was added. The mixture was vortexed vigorously for 10 cycles of 1 min at room temperature before being centrifuged for 6 min to separate the two phases. Equal volumes from each phase were aliquoted into individual counting tubes and analysed for 1 min using the Perkin Elmer 2480 Wizard2™ gamma counter (PerkinElmer, Massachusetts, USA). The distribution coefficient was calculated using the following equation [formula]

A431 CCK2R cells = test system: A431 CCK2R cells; parameters: species or system BALB/c nu/nu mice; details: mouse, in vivo, iv
Method: The diagnostic efficacy of Compounds [^68Ga]Ga-1-4 and [^68Ga]Ga-Cmp ex-2 was assessed using static small animal PET imaging and quantifying biodistribution studies. Female BALB/c nu/nu mice (age 8-10 weeks) were inoculated subcutaneously on the right flank with 3×10^6 A431 CCK2R cells in PBS:Matrigel (1:1). Mice were weighed and tumours measured twice weekly using electronic callipers with tumour volume (mm^3) calculated as length×width×height×π/6. Mice were assigned to imaging and/or biodistribution groups (tumour volumes: 50-500 mm^3). The respective Ga-68 labelled tracer (4-5 MBq, 100 μL, 13.7-14.2 pmoles) was mixed with vehicle solution (75 μL, DMSO:Tween 80:water, 2:2:6 v/v/v) and then administered to six mice intravenously via tail vein injection. Three mice were euthanised for biodistribution 1 h post injection and selected tissues were excised, weighed and counted using a Capintec (Captus 4000e) gamma counter. Three mice were anaesthetised using 1.5% isoflurane and imaged at 1 and 2 h with a G8 Small Animal PET/CT scanner (Perkin Elmer/Sofie Biosciences). A 10 min static PET scan was acquired, followed immediately by a CT scan. PET images were acquired using the G8 acquisition engine software and reconstructed using a 3D maximal likelihood and expectation maximization (ML-EM) algorithm. PET images were analysed using VivoQuant software, version 3.0 (inviCRO Imaging Services and Software) to quantify maximum standardised uptake value in regions of interest (SUVmax). After imaging the 2 h time point the mice were harvested for biodistribution analysis as above.
For blocking CCK2R binding a solution of N-[(3R)-2,3-Dihydro-1-[2-(2-methylphenyl)-2-oxoethyl]-2-oxo-5-phenyl-1H-1,4-benzodiazepin-3-yl]-N′-(3-methylphenyl)-urea (YM022; Sigma Aldrich) was used. […]

| SMILES | metabolism in kidney homogenates (in vitro) | metabolism in liver homogenates (in vitro) | LogD7.4 [1] | remaining at 1.5 h (in vitro; other tissue homogenate) [%] | remaining at 1.5 h (in vitro; tissue homogenate) [%] | renal / kidney uptake (A431 CCK2R cells) | tumour uptake (A431 CCK2R cells) | tumour to kidney ratio (A431 CCK2R cells) |
| --- | --- | --- | --- | --- | --- | --- | --- | --- |
| CCCC[C@@H](C(=O)N[C@@H](CC(=O)O)C(=O)N(C)[C@@H](Cc1ccccc1)C(N)=O)N(C)C(=O)[C@H](Cc1c[nH]c2ccccc12)NC(=O)CN(C)C(=O)[C@H](Cc1ccc(O)cc1)NC(=O)[C@H](C)NC(=O)[C@@H](CCC(=O)O)NC(=O)[C@@H](CCC(=O)O)NC(=O)[C@@H](CCC(=O)O)NC(=O)[C@@H](C)NC(=O)[C@@H](CCC(=O)O)NC(=O)[C@@H](CCC(=O)O)NC(=O)CN1CCN(CC(=O)O)CCN(CC(=O)O)CCN(CC(=O)O)CC1 [[^68Ga]Ga-2, metal not drawn] ({DOTA}-[dE][dE][dA][dE][dE][dE]AY[Sar]W[NMeNle]D[NMeF]-NH2) | no observable metabolites detected | no observable metabolites detected | −3.56 ± 0.01 |  |  |  |  |  |
| CCCC[C@@H](C(=O)N[C@@H](CC(=O)O)C(=O)N[C@@H](Cc1cccc2ccccc12)C(N)=O)N(C)C(=O)[C@H](Cc1c[nH]c2ccccc12)NC(=O)CN(C)C(=O)[C@H](Cc1ccc(O)cc1)NC(=O)[C@H](C)NC(=O)[C@@H](CCC(=O)O)NC(=O)[C@@H](CCC(=O)O)NC(=O)[C@@H](CCC(=O)O)NC(=O)[C@@H](C)NC(=O)[C@@H](CCC(=O)O)NC(=O)[C@@H](CCC(=O)O)NC(=O)CN1CCN(CC(=O)O)CCN(CC(=O)O)CCN(CC(=O)O)CC1 [[^68Ga]Ga-1, metal not drawn] ({DOTA}-[dE][dE][dA][dE][dE][dE]AY[Sar]W[NMeNle]D[1Nal]-NH2) | significant metabolism | significant metabolism | −2.88 ± 0.09 | 75 | 85 |  |  |  |
| CCCC[C@@H](C(=O)N[C@@H](CC(=O)O)C(=O)N[C@@H](Cc1ccccc1)C(N)=O)N(C)C(=O)[C@H](Cc1c[nH]c2ccccc12)NC(=O)CN(C)C(=O)[C@H](Cc1ccc(O)cc1)NC(=O)[C@H](C)NC(=O)[C@@H](CCC(=O)O)NC(=O)[C@@H](CCC(=O)O)NC(=O)[C@@H](CCC(=O)O)NC(=O)[C@@H](C)NC(=O)[C@@H](CCC(=O)O)NC(=O)[C@@H](CCC(=O)O)NC(=O)CN1CCN(CC(=O)O)CCN(CC(=O)O)CCN(CC(=O)O)CC1 [[^68Ga]Ga-3, metal not drawn] ({DOTA}-[dE][dE][dA][dE][dE][dE]AY[Sar]W[NMeNle]DF-NH2) | significant metabolism | significant metabolism | −4.06 ± 0.14 | 20 | ~35 |  |  |  |
| CCCC[C@@H](C(=O)N[C@@H](CC(=O)O)C(=O)N(C)[C@@H](Cc1cccc2ccccc12)C(N)=O)N(C)C(=O)[C@H](Cc1c[nH]c2ccccc12)NC(=O)CN(C)C(=O)[C@H](Cc1ccc(O)cc1)NC(=O)[C@H](C)NC(=O)[C@@H](CCC(=O)O)NC(=O)[C@@H](CCC(=O)O)NC(=O)[C@@H](CCC(=O)O)NC(=O)[C@@H](CCC(=O)O)NC(=O)[C@@H](CCC(=O)O)NC(=O)[C@@H](CCC(=O)O)NC(=O)CN1CCN(CC(=O)O)CCN(CC(=O)O)CCN(CC(=O)O)CC1 [[^68Ga]Ga-Cmp ex-2, metal not drawn, reference compound] ({DOTA}-[dE][dE][dE][dE][dE][dE]AY[Sar]W[NMeNle]D[NMe1Nal]-NH2) | no observable metabolites detected | no observable metabolites detected | −2.97 ± 0.13 |  |  | highest renal uptake | best tumour uptake |  |
| CCCC[C@@H](C(=O)N[C@@H](CC(=O)O)C(=O)N(C)[C@@H](Cc1cccc2ccccc12)C(N)=O)N(C)C(=O)[C@H](Cc1c[nH]c2ccccc12)NC(=O)CN(C)C(=O)[C@H](Cc1ccc(O)cc1)NC(=O)[C@H](C)NC(=O)[C@@H](CCC(=O)O)NC(=O)[C@@H](CCC(=O)O)NC(=O)[C@@H](CCC(=O)O)NC(=O)[C@@H](C)NC(=O)[C@@H](CCC(=O)O)NC(=O)[C@@H](CCC(=O)O)NC(=O)CN1CCN(CC(=O)O)CCN(CC(=O)O)CCN(CC(=O)O)CC1 [Compound 4] ({DOTA}-[dE][dE][dA][dE][dE][dE]AY[Sar]W[NMeNle]D[NMe1Nal]-NH2) |  |  |  |  | 100 |  |  |  |
| CCCC[C@@H](C(=O)N[C@@H](CC(=O)O)C(=O)N(C)[C@@H](Cc1cccc2ccccc12)C(N)=O)N(C)C(=O)[C@H](Cc1c[nH]c2ccccc12)NC(=O)CN(C)C(=O)[C@H](Cc1ccc(O)cc1)NC(=O)[C@H](C)NC(=O)[C@@H](CCC(=O)O)NC(=O)[C@@H](CCC(=O)O)NC(=O)[C@@H](CCC(=O)O)NC(=O)[C@@H](C)NC(=O)[C@@H](CCC(=O)O)NC(=O)[C@@H](CCC(=O)O)NC(=O)CN1CCN(CC(=O)O)CCN(CC(=O)O)CCN(CC(=O)O)CC1 [[^68Ga]Ga-4, metal not drawn] ({DOTA}-[dE][dE][dA][dE][dE][dE]AY[Sar]W[NMeNle]D[NMe1Nal]-NH2) | no observable metabolites detected | no observable metabolites detected | −2.59 ± 0.02 |  |  |  |  | best tumour to kidney ratio |
